# From patent US20030216297A1, “Pharmaceutical composition” (SANKYO COMPANY, LIMITED, priority 2002, published 2003)
# Test system: not listed separately
# Experiment: Degree of adsorption to a heparin cross-linked column
# Format: physicochemical
# Conditions: applied and washed with 0.7 M NaCl, eluted with 2 M NaCl in 10 mM sodium phosphate buffer; OCIF by ELISA
# From the text: A preferred feature of the complexes used in the present invention that can be used to characterise them is their affinity to heparin. Heparin is a polysaccharide comprising D-glucosamine, D-glucuronic acid and D-iduronic acid which is partially or fully derivatised with sulfate and acetyl groups. A preferred feature of the complexes employed in the present invention is that the strength of adsorption of said complex of OCIF or an anlogue or variant thereof to heparin is lower than the strength of adsorption of the free, non-complexed OCIF or analogue or variant thereof. The degree of adsorption can be determined using a column packed with highly cross-linked. linked agarose beads on which has been immobilized heparin (e.g. heparin obtained from bovine intestinal mucosa). Suitable columns of this type include HiTrap heparin HP column, HiPrep 16/10 Heparin and Heparin Sepharose (all obtainable from Amersham Pharmacia). The strength of adsorption (the affinity) of the complex can be determined according to any suitable method that is well known to the person skilled in the art for determining the affinity of proteins to polysaccharides. […] Thus, typically the degree of adsorption of the complex to heparin can be determined as follows:
# (a) A column packed with a support such as cross-linked agarose beads on which has been immobilized heparin is equilibrated with a buffer having a relatively low ionic strength (e.g. sodium phosphate buffer containing 0.1-0.8 M sodium chloride).
# (b) The complex of the present invention that is being tested is dissolved in the same low ionic strength buffer as used in (a) and applied to the column and a first eluate is then collected (fraction A).
# (c) The column is then washed further with the same low ionic strength buffer as used in step (a) and a second eluate is collected (fraction B).
# (d) The column is then washed with a buffer having a relatively high ionic strength (e.g. sodium phosphate buffer containing 1.0-2.0 M sodium chloride) and a third eluate is then collected (fraction C).
# (e) The amount of the complex present in each of fractions A, B and C [designated (α), (β) and (γ) respectively] is then determined (e.g. by an immunoassay).
# (f) The degree of adsorption of the complex to heparin is then determined according to the following formula: [formula]
# The degree of adsorption of the complexes of the present invention as measured by the above formula will vary to some extent depending upon the type of heparin column and the conditions under which the determination is carried out.
# A heparin cross-linked column (HiTrap Heparin HP column, Lot. 289212, Amersham Bioscience) was pre-equilibrated with 5 ml of 10 mM sodium phosphate buffer containing 0.7 M sodium chloride. A preparation from Table 1 of Preparation Example 1 was taken and diluted to a final protein concentration of 0.1 mg/ml with 10 mM sodium phosphate buffer containing 0.7 M sodium chloride. 1 ml of the diluted solution thus obtained was applied to said column and 1 ml of a first eluate was collected (fraction A). Next, 5 ml of 10 mM sodium phosphate buffer containing 0.7 M sodium chloride were applied to said column and 5 ml of a second eluate were collected (fraction B). Finally, 4 ml of 10 mM sodium phosphate buffer containing 2M sodium chloride were applied to said column and 4 ml of an eluate were collected (fraction C).
# 100 μL of 0.1 M sodium hydrogen carbonate (pH 9.6), in which was dissolved an anti-human OCIF monoclonal antibody OI-19 (FERM BP-6420) at a concentration of 10 μg per ml, were transferred to each well of a 96-well microtitre plate (Maxisorp: NUNC Co Ltd.). The plate was sealed and then incubated at 4° C. overnight. At the end of this incubation time, the solution in each well was removed by decantation, 300 μL of 50% Block Ace (purchased from Dainippon Pharmaceutical Co., Ltd.) were added to each well, and then the plate was incubated at room temperature for 2 hours. […]
row,Molecule,The degree of adsorption of the OCIF/DS complex to a heparin cross-linked column
1,"Prep. 22: OCIF/DS5 complex: DS5 150 mg/ml, OCIF 5 mg/ml, 7 °C, pH 10.5, 168 h",0.264
2,"Prep. 25: OCIF/DS5 complex: DS5 130 mg/ml, OCIF 6.5 mg/ml, 4 °C, pH 10.5, 24 h",0.611
3,"Prep. 24: OCIF/DS5 complex: DS5 150 mg/ml, OCIF 5 mg/ml, 25 °C, pH 10, 24 h",0.072
4,"Prep. 27: OCIF/DS5 complex: DS5 150 mg/ml, OCIF 5 mg/ml, 4 °C, pH 10.5, 144 h",0.141
5,"Prep. 7: OCIF/DS5 complex: DS5 130 mg/ml, OCIF 6.5 mg/ml, 4 °C, pH 10.5, 144 h",0.183
6,"Prep. 8: OCIF/DS5 complex: DS5 130 mg/ml, OCIF 6.5 mg/ml, 4 °C, pH 10.5, 288 h",0.153
7,"Prep. 6: OCIF/DS5 complex: DS5 130 mg/ml, OCIF 6.5 mg/ml, 4 °C, pH 10.5, 48 h",0.451

# Test system: adjuvant-arthritis Lewis rat
# Experiment: Adjuvant arthritis in Lewis rats, femur bone mineral density: OCIF complex with celecoxib
# Format: in vivo
# Conditions: distal ends of femurs, day 21 after adjuvant; celecoxib 1 mg/kg p.o. and/or Preparation 22 3.5 mg/kg i.p. daily, days 14 to 20
# Experimental: Arthritis was induced in test groups of Lewis rats (eight-weeks old, female) according to the same procedure described in Example 2 above.
# From the 14th to 20th days after injection of the adjuvant, celecoxib [Thomas D, P., et al., J. Med. Chem., 40, 1347-1365 (1997); WO-A-95/15316] suspended in a 0.5% tragacanth aqueous solution (manufactured by Nihon Funmatsu Yakuhin Co., Ltd.) at a concentration of 0.2 mg/ml was orally administered to each rat of one test group at a rate of 5 ml/kg each day so that the dose of […] administered was 1 mg/kg body weight. […]
# Each rat was dissected on the 21 st day after injection of the adjuvant, and the right-and-left femurs were extracted. The bone mineral densities of the distal ends of the right-and-left femurs were measured using an X-ray measurement apparatus (Dual energy X-ray absorptiometry DCS-600R, manufactured by Aroka Co., Ltd.), and the average of each of the measured values was calculated, and was defined as the bone mineral density of the individual.
# In order to evaluate the differences between the averages of the bone mineral densities of each group, significant difference was tested by Student's t-test, and the P value was calculated.
row,Molecule,Bone mineral density (average ± standard error)
1,"Prep. 22: OCIF/DS5 complex: DS5 150 mg/ml, OCIF 5 mg/ml, 7 °C, pH 10.5, 168 h",104.2 ± 2.1 mg/cm^2
2,"Cc1ccc(-c2cc(C(F)(F)F)nn2-c2ccc(S(N)(=O)=O)cc2)cc1 [Celecoxib, celecoxib, reference compound]",103.0 ± 1.8 mg/cm^2

# Test system: adjuvant-arthritis Lewis rat
# Experiment: Adjuvant arthritis in Lewis rats, femur bone mineral density: OCIF complex with loxoprofen sodium
# Format: in vivo
# Conditions: distal ends of femurs, day 21 after adjuvant; loxoprofen sodium 5 mg/kg p.o. and/or Preparation 11 0.1 mg/kg i.p. daily, days 14 to 20
# Experimental: This example was carried out according to the method described in C. V. Winder, et al. Arthritis Rheum 12 472 (1957). Heat-killed cells of Mycobacterium butyricum were pulverized in an agate mortar and then suspended in liquid paraffin sterilized with hot air to give a suspension having a cellular concentration of 2 mg/ml. This suspension was then subjected to ultrasonication so as to produce an adjuvant. 50 μl of the obtained adjuvant were injected intradermally at each of two sites in the base of the tail of a Lewis rat (eight-weeks old, female) (200 μg in total per rat), to induce arthritis in said rat. […] As a control, instead of the loxoprofen sodium, OCIF complex Preparation 11 or a combination thereof, only the solvents used for dissolving them were administered to the rat. […] The bone mineral densities of the distal ends of the right-and-left femurs were measured using an X-ray measurement apparatus (Dual energy X-ray absorptiometry DCS-600R, manufactured by Aroka Co., Ltd.), and the average of each of the measured values was calculated, and was defined as the bone mineral density of the individual. In order to evaluate the differences between the averages of the bone mineral densities of each group, significant difference was tested by Student's t-test, and the P value was calculated.
row,Molecule,Bone mineral density (average ± standard error)
1,"CC(C(=O)O)c1ccc(CC2CCCC2=O)cc1 (stereo not shown) [Loxoprofen sodium, loxoprofen sodium, reference compound]",106.5 ± 0.8 mg/cm^2
2,"Prep. 11: OCIF/DS5 complex: DS5 100 mg/ml, OCIF 5 mg/ml, 4 °C, pH 10.5, 18 h",109.6 ± 2.1 mg/cm^2

# Test system: not listed separately
# Experiment: Measurement of isoelectric point by isoelectric electrophoresis gel
# Format: physicochemical
# Conditions: IEF PAGE mini gel, pH range 3 to 10, compared with pI markers
# From the text: The isoelectric point can be measured using any conventional isoelectric electrophoresis technique well-known to the skilled person in the art. OCIF is a basic protein and the isoelectric point thereof is about pI 9. […] Therefore, it is possible to readily distinguish complexed and uncomplexed OCIF using this technique.
# The purified recombinant dimeric human OCIF, prepared as described in Preparation Example 1(a) above and the complex of OCIF and dextran sulfate prepared in Preparation Example 1(b) above which is designated Preparation Number 22 in Table 1 were applied separately to an isoelectric electrophoresis gel IEF PAGE mini (pH range of 3 to 10, manufactured by Iwaki Glass), using an IEF pH 3-7 buffer kit (Technical Frontier Co.) and a voltage was applied to the gel according to the following regime: 100 V for 1 hour, followed by 200 V for 1 hour and finally 500 V for 30 minutes. After completion of the electrophoresis, the resultant gel obtained in each case was stained with Coomassie Blue.
# From the electrophoresis gels obtained above, it was determined that the isoelectric point of the dimeric human OCIF was about pI 9, and the isoelectric point of the complex of OCIF and dextran sulfate designated Preparation Number 22 was about pI 6.5 by comparing the band position of OCIF and that of the OCIF complex with pI markers.
row,Molecule,isoelectric point (pI)
1,"Prep. 22: OCIF/DS5 complex: DS5 150 mg/ml, OCIF 5 mg/ml, 7 °C, pH 10.5, 168 h",~6.5
2,"OCIF: recombinant dimeric human osteoclastogenesis inhibitory factor, molecular weight about 120000, non-complexed",~9
